Publication PMC3020727 (The Journal of Biological Chemistry, 2010)
Each block holds one binder with its values, some of them ahead of it. No end group written: not given here. *: point of attachment. Biotin = O=C1N[C@H]2[C@H](CS[C@H]2CCCCC(=O)*)N1

What was measured:
[1] = target: T1, RbAp48 (full length, residues 1-425), purified recombinant (UniProt Q09028 1-425); assay: SPR
[2] = target: T1, RbAp48 (full length, residues 1-425), …; assay: ITC

T1 sequence (Q09028 whole entry, the tested form may be a part): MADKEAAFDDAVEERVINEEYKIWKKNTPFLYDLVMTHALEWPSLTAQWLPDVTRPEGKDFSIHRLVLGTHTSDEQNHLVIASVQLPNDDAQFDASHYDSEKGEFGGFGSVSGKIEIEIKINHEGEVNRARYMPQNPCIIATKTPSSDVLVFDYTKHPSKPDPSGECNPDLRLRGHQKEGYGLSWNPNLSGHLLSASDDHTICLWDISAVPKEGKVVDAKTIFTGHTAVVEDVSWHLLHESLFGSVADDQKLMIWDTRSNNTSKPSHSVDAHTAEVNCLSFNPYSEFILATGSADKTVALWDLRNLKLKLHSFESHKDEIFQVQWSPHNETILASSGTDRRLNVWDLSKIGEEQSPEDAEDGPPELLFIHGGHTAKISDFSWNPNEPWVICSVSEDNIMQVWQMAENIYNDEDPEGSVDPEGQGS

Ka [1]: 1.36e+06 M⁻¹
B1: biotinylated FOG-1-(1-15) peptide (peptide)
peptide: Biotin-MSRRKQSNPRQIKRS

Ka [2]: 1.54e+06 M⁻¹
B2: FOG-1-(1-12) peptide (peptide)
peptide: MSRRKQSNPRQI
